The results in this text go back to the supplement of paper PMC5998384.

For data set [1], the system named is HeLa Kyoto. Briefly: solubility in G1/S (NP-40 vs SDS abundance) (log2 ratio); higher = more soluble. The following applies: cell cycle stage: G1/S.
For data set [2], the system named is HeLa Kyoto. Put plainly: solubility change mitosis vs G1/S (difference of NP-40 vs SDS log2 ratios) (log2 ratio difference); higher = more soluble in mitosis.
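For solubility change mitosis vs G1/S (difference of NP-40 vs SDS log2 ratios) in this document: synchronized HeLa Kyoto cells (double thymidine block for G1/S, nocodazole release for mitosis), protein amounts in NP-40 versus SDS lysates quantified by mass spectrometry, three biological replicates.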
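For solubility in G1/S (NP-40 vs SDS abundance) in this document: HeLa Kyoto cells arrested at G1/S by double thymidine block, proteins quantified by TMT10plex mass spectrometry in mild NP-40 versus SDS extracts, three biological replicates.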

With “MEEGNNNEEVIHLNNFHCHRGQEWINLRDGPITISDSSDEERIPMLVTPAPQQHEEEDLDDDVILTEDDSEDDYGEFLDLGPPGISEFTKPSGQTEREPKPGPSHNQAANDIVNPRSEQKVIILEEGSLLYTESDPLETQNQSSEDSETELLSNLGESAALADDQAIEEDCWLDHPYFQSLNQQPREITNQVVPQERQPEAELGRLLFQHEFPGPAFPRPEPQQGGISGPSSPQPAHPLGEFEDQQLASDDEEPGPAFPMQESQEPNLENIWGQEAAEVDQELVELLVKETEARFPDVANGFIEEIIHFKNYYDLNVLCNFLLENPDYPKREDRIIINPSSSLLASQDETKLPKIDFFDYSKLTPLDQRCFIQAADLLMADFKVLSSQDIKWALHELKGHYAITRKALSDAIKKWQELSPETSGKRKKRKQMNQYSYIDFKFEQGDIKIEKRMFFLENKRRHCRSYDRRALLPAVQQEQEFYEQKIKEMAEHEDFLLALQMNEEQYQKDGQLIECRCCYGEFPFEELTQCADAHLFCKECLIRYAQEAVFGSGKLELSCMEGSCTCSFPTSELEKVLPQTILYKYYERKAEEEVAAAYADELVRCPSCSFPALLDSDVKRFSCPNPHCRKETCRKCQGLWKEHNGLTCEELAEKDDIKYRTSIEEKMTAARIRKCHKCGTGLIKSEGCNRMSCRCGAQMCYLCRVSINGYDHFCQHPRSPGAPCQECSRCSLWTDPTEDDEKLIEEIQKEAEEEQKRKNGENTFKRIGPPLEKPVEKVQRVEALPRPVPQNLPQPQMPPYAFAHPPFPLPPVRPVFNNFPLNMGPIPAPYVPPLPNVRVNYDFGPIHMPLEHNLPMHFGPQPRHRF [RNF216]”, the “solubility in G1/S (log2)” value in the data set with HeLa Kyoto [1] is -0.195. The “solubility change mitosis (log2)” value in the data set on HeLa Kyoto [2] was -0.122.

As to “MEGAAAREARGTETPRASAPPPAPSEPPAAPRARPRLVFRTQLAHGSPTGKIEGFTNVRELYAKIAEAFGIAPTEILFCTLNSHKVDMQKLLGGQIGLEDFIFAHVRGETKEVEVTKTEDALGLTITDNGAGYAFIKRIKEGSIINRIEAVCVGDSIEAINDHSIVGCRHYEVAKMLRELPKSQPFTLRLVQPKRAFDMIGQRSRSSKCPVEAKVTSGRETLRLRSGGAATVEEAPSEFEEEASRKVDDLLESYMGIRDPELASTMVETSKKTASAQEFARCLDSVLGEFAFPDEFVVEVWAAIGEAREACG [GIPC3]”, the “solubility in G1/S (log2)” value with HeLa Kyoto [1] is 0.0786. For the same sequence, the “solubility change mitosis (log2)” value in the data set with HeLa Kyoto [2] is -0.0196.

“MEGDGVPWGSEPVSGPGPGGGGMIRELCRGFGRYRRYLGRLRQNLRETQKFFRDIKCSHNHTCLSSLTGGGGAERGPAGDVAETGLQAGQLSCISFPPKEEKYLQQIVDCLPCILILGQDCNVKCQLLNLLLGVQVLPTTKLGSEESCKLRRLRFTYGTQTRVSLALPGQYELVHTLVAHQGNWETIPEEDLEVQENNEDAAHVLAELEVTMHHALLQEVDVVVAPCQGLRPTVDVLGDLVNDFLPVITYALHKDELSERDEQELQEIRKYFSFPVFFFKVPKLGSEIIDSSTRRMESERSPLYRQLIDLGYLSSSHWNCGAPGQDTKAQSMLVEQSEKLRHLSTFSHQVLQTRLVDAAKALNLVHCHCLDIFINQAFDMQRDLQITPKRLEYTRKKENELYESLMNIANRKQEEMKDMIVETLNTMKEELLDDATNMEFKDVIVPENGEPVGTREIKCCIRQIQELIISRLNQAVANKLISSVDYLRESFVGTLERCLQSLEKSQDVSVHITSNYLKQILNAAYHVEVTFHSGSSVTRMLWEQIKQIIQRITWVSPPAITLEWKRKVAQEAIESLSASKLAKSICSQFRTRLNSSHEAFAASLRQLEAGHSGRLEKTEDLWLRVRKDHAPRLARLSLESCSLQDVLLHRKPKLGQELGRGQYGVVYLCDNWGGHFPCALKSVVPPDEKHWNDLALEFHYMRSLPKHERLVDLHGSVIDYNYGGGSSIAVLLIMERLHRDLYTGLKAGLTLETRLQIALDVVEGIRFLHSQGLVHRDIKLKNVLLDKQNRAKITDLGFCKPEAMMSGSIVGTPIHMAPELFTGKYDNSVDVYAFGILFWYICSGSVKLPEAFERCASKDHLWNNVRRGARPERLPVFDEECWQLMEACWDGDPLKRPLLGIVQPMLQGIMNRLCKSNSEQPNRGLDDST [DSTYK]”: the “solubility in G1/S (log2)” value with HeLa Kyoto [1] came to 0.0887. For the same sequence, the “solubility change mitosis (log2)” value with HeLa Kyoto [2] is -0.242.

“MEGVELKEEWQDEDFPIPLPEDDSIEADILAITGPEDQPGSLEVNGNKVRKKLMAPDISLTLDPSDGSVLSDDLDESGEIDLDGLDTPSENSNEFEWEDDLPKPKTTEVIRKGSITEYTAAEEKEDGRRWRMFRIGEQDHRVDMKAIEPYKKVISHGGYYGDGLNAIVVFAVCFMPESSQPNYRYLMDNLFKYVIGTLELLVAENYMIVYLNGATTRRKMPSLGWLRKCYQQIDRRLRKNLKSLIIVHPSWFIRTLLAVTRPFISSKFSQKIRYVFNLAELAELVPMEYVGIPECIKQVDQELNGKQDEPKNEQ [BNIP2]”: the “solubility in G1/S (log2)” value in the data set with HeLa Kyoto [1] worked out at 0.0256. The “solubility change mitosis (log2)” value with HeLa Kyoto [2] was -0.366.

On to “MEKYHVLEMIGEGSFGRVYKGRRKYSAQVVALKFIPKLGRSEKELRNLQREIEIMRGLRHPNIVHMLDSFETDKEVVVVTDYAEGELFQILEDDGKLPEDQVQAIAAQLVSALYYLHSHRILHRDMKPQNILLAKGGGIKLCDFGFARAMSTNTMVLTSIKGTPLYMSPELVEERPYDHTADLWSVGCILYELAVGTPPFYATSIFQLVSLILKDPVRWPSTISPCFKNFLQGLLTKDPRQRLSWPDLLYHPFIAGHVTIITEPAGPDLGTPFTSRLPPELQVLKDEQAHRLAPKGNQSRILTQAYKRMAEEAMQKKHQNTGPALEQEDKTSKVAPGTAPLPRLGATPQESSLLAGILASELKSSWAKSGTGEVPSAPRENRTTPDCERAFPEERPEVLGQRSTDVVDLENEEPDSDNEWQHLLETTEPVPIQLKAPLTLLCNPDFCQRIQSQLHEAGGQILKGILEGASHILPAFRVLSSLLSSCSDSVALYSFCREAGLPGLLLSLLRHSQESNSLQQQSWYGTFLQDLMAVIQAYFACTFNLERSQTSDSLQVFQEAANLFLDLLGKLLAQPDDSEQTLRRDSLMCFTVLCEAMDGNSRAISKAFYSSLLTTQQVVLDGLLHGLTVPQLPVHTPQGAPQVSQPLREQSEDIPGAISSALAAICTAPVGLPDCWDAKEQVCWHLANQLTEDSSQLRPSLISGLQHPILCLHLLKVLYSCCLVSEGLCRLLGQEPLALESLFMLIQGKVKVVDWEESTEVTLYFLSLLVFRLQNLPCGMEKLGSDVATLFTHSHVVSLVSAAACLLGQLGQQGVTFDLQPMEWMAAATHALSAPAEVRLTPPGSCGFYDGLLILLLQLLTEQGKASLIRDMSSSEMWTVLWHRFSMVLRLPEEASAQEGELSLSSPPSPEPDWTLISPQGMAALLSLAMATFTQEPQLCLSCLSQHGSILMSILKHLLCPSFLNQLRQAPHGSEFLPVVVLSVCQLLCFPFALDMDADLLIGVLADLRDSEVAAHLLQVCCYHLPLMQVELPISLLTRLALMDPTSLNQFVNTVSASPRTIVSFLSVALLSDQPLLTSDLLSLLAHTARVLSPSHLSFIQELLAGSDESYRPLRSLLGHPENSVRAHTYRLLGHLLQHSMALRGALQSQSGLLSLLLLGLGDKDPVVRCSASFAVGNAAYQAGPLGPALAAAVPSMTQLLGDPQAGIRRNVASALGNLGPEGLGEELLQCEVPQRLLEMACGDPQPNVKEAALIALRSLQQEPGIHQVLVSLGASEKLSLLSLGNQSLPHSSPRPASAKHCRKLIHLLRPAHSM [STK36]”, for which the “solubility in G1/S (log2)” value in the data set on HeLa Kyoto [1] is -0.178. In the data set with HeLa Kyoto [2], the “solubility change mitosis (log2)” value came out at 0.092.

For “MEKYVRLQKIGEGSFGKAILVKSTEDGRQYVIKEINISRMSSKEREESRREVAVLANMKHPNIVQYRESFEENGSLYIVMDYCEGGDLFKRINAQKGVLFQEDQILDWFVQICLALKHVHDRKILHRDIKSQNIFLTKDGTVQLGDFGIARVLNSTVELARTCIGTPYYLSPEICENKPYNNKSDIWALGCVLYELCTLKHAFEAGSMKNLVLKIISGSFPPVSLHYSYDLRSLVSQLFKRNPRDRPSVNSILEKGFIAKRIEKFLSPQLIAEEFCLKTFSKFGSQPIPAKRPASGQNSISVMPAQKITKPAAKYGIPLAYKKYGDKKLHEKKPLQKHKQAHQTPEKRVNTGEERRKISEEAARKRRLEFIEKEKKQKDQIISLMKAEQMKRQEKERLERINRAREQGWRNVLSAGGSGEVKAPFLGSGGTIAPSSFSSRGQYEHYHAIFDQMQQQRAEDNEAKWKREIYGRGLPERGILPGVRPGFPYGAAGHHHFPDADDIRKTLKRLKAVSKQANANRQKGQLAVERAKQVEEFLQRKREAMQNKARAEGHMVYLARLRQIRLQNFNERQQIKAKLRGEKKEANHSEGQEGSEEADMRRKKIESLKAHANARAAVLKEQLERKRKEAYEREKKVWEEHLVAKGVKSSDVSPPLGQHETGGSPSKQQMRSVISVTSALKEVGVDSSLTDTRETSEEMQKTNNAISSKREILRRLNENLKAQEDEKGKQNLSDTFEINVHEDAKEHEKEKSVSSDRKKWEAGGQLVIPLDELTLDTSFSTTERHTVGEVIKLGPNGSPRRAWGKSPTDSVLKILGEAELQLQTELLENTTIRSEISPEGEKYKPLITGEKKVQCISHEINPSAIVDSPVETKSPEFSEASPQMSLKLEGNLEEPDDLETEILQEPSGTNKDESLPCTITDVWISEEKETKETQSADRITIQENEVSEDGVSSTVDQLSDIHIEPGTNDSQHSKCDVDKSVQPEPFFHKVVHSEHLNLVPQVQSVQCSPEESFAFRSHSHLPPKNKNKNSLLIGLSTGLFDANNPKMLRTCSLPDLSKLFRTLMDVPTVGDVRQDNLEIDEIEDENIKEGPSDSEDIVFEETDTDLQELQASMEQLLREQPGEEYSEEEESVLKNSDVEPTANGTDVADEDDNPSSESALNEEWHSDNSDGEIASECECDSVFNHLEELRLHLEQEMGFEKFFEVYEKIKAIHEDEDENIEICSKIVQNILGNEHQHLYAKILHLVMADGAYQEDNDE [NEK1]”, the “solubility in G1/S (log2)” value with HeLa Kyoto [1] was -0.156. The “solubility change mitosis (log2)” value in the data set with HeLa Kyoto [2] is -0.0529.

For “MELAQEARELGCWAVEEMGVPVAARAPESTLRRLCLGQGADIWAYILQHVHSQRTVKKIRGNLLWYGHQDSPQVRRKLELEAAVTRLRAEIQELDQSLELMERDTEAQDTAMEQARQHTQDTQRRALLLRAQAGAMRRQQHTLRDPMQRLQNQLRRLQDMERKAKVDVTFGSLTSAALGLEPVVLRDVRTACTLRAQFLQNLLLPQAKRGSLPTPHDDHFGTSYQQWLSSVETLLTNHPPGHVLAALEHLAAEREAEIRSLCSGDGLGDTEISRPQAPDQSDSSQTLPSMVHLIQEGWRTVGVLVSQRSTLLKERQVLTQRLQGLVEEVERRVLGSSERQVLILGLRRCCLWTELKALHDQSQELQDAAGHRQLLLRELQAKQQRILHWRQLVEETQEQVRLLIKGNSASKTRLCRSPGEVLALVQRKVVPTFEAVAPQSRELLRCLEEEVRHLPHILLGTLLRHRPGELKPLPTVLPSIHQLHPASPRGSSFIALSHKLGLPPGKASELLLPAAASLRQDLLLLQDQRSLWCWDLLHMKTSLPPGLPTQELLQIQASQEKQQKENLGQALKRLEKLLKQALERIPELQGIVGDWWEQPGQAALSEELCQGLSLPQWRLRWVQAQGALQKLCS [HAUS5]”, the “solubility in G1/S (log2)” value in the data set with HeLa Kyoto [1] is 0.307. The “solubility change mitosis (log2)” value in the data set on HeLa Kyoto [2] is -0.0591.
